The record followed here is publication doi:10.1101/737098.

The target of this assay is wild-type KRAS4b GTPase domain (1-169), GMPPNP-bound (human) (UniProt P01116). Description: ITC. A general note: ITC needs no label: the signal is the heat of the interaction.

In the case of “NF1-GRD (GAP-related domain of neurofibromin 1) (from UniProt P21359-2 1198-1530) (domain or fragment)”, the Kd (as a rule, the equilibrium constant for the complex coming apart) turned out to be 1 µM.
